# Source: IntAct's records for PubMed 21957239
# B1: Sodium-dependent dopamine transporter (Homo sapiens), Q01959 (parent)
# chain: MSKSKCSVGLMSSVVAPAKEPNAVGPKEVELILVKEQNGVQLTSSTLTNPRQSPVEAQDRETWGKKIDFLLSVIGFAVDLANVWRFPYLCYKNGGGAFLVPYLLFMVIAGMPLFYMELALGQFNREGAAGVWKICPILKGVGFTVILISLYVGFFYNVIIAWALHYLFSSFTTELPWIHCNNSWNSPNCSDAHPGDSSGDSSGLNDTFGTTPAAEYFERGVLHLHQSHGIDDLGPPRWQLTACLVLVIVLLYFSLWKGVKTSGKVVWITATMPYVVLTALLLRGVTLPGAIDGIRAYLSVDFYRLCEASVWIDAATQVCFSLGVGFGVLIAFSSYNKFTNNCYRDAIVTTSINSLTSFSSGFVVFSFLGYMAQKHSVPIGDVAKDGPGLIFIIYPEAIATLPLSSAWAVVFFIMLLTLGIDSAMGGMESVITGLIDEFQLLHRHRELFTLFIVLATFLLSLFCVTNGGIYVFTLLDHFAAGTSILFGVLIEAIGVAWFYGVGQFSDDIQQMTGQRPSLYWRLCWKLVSPCFLLFVVVVSIVTFRPPHYGAYIFPDWANALGWVIATSSMAMVPIYAAYKFCSLPGSFREKLAYAIAPEKDRELVDRGEVRQFTLRHWLKV
# partner: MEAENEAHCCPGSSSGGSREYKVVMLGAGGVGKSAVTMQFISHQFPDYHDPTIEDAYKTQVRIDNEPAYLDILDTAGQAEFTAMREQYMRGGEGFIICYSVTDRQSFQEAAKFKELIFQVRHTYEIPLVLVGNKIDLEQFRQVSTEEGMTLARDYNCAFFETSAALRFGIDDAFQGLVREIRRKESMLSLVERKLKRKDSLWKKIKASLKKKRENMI
# Variants of: B1
# Details: with rit2_rat Rit2, Q5BJQ5
row,Variant,effect of a mutation on the interaction
1,F587A;R588A;E589A;K590A,increasing interaction strength
